Assay results: PMC9560800
Where “and” joins values, the source holds several entries; their conditions need not be identical. Identical values can stand only once.

How the values were obtained:
[1] = biological target: tag-less B.1.351 trimeric spike protein (SARS-CoV-2 | T4 phage); test: SEC-MALS
[2] = biological target: tag-less B.1.617.2 trimeric spike protein (SARS-CoV-2 | T4 phage); test: SEC-MALS

tag-less B.1.351 trimeric spike protein was tested, and the stoichiometry N [1] was 3 and 6.
“tag-less B.1.617.2 trimeric spike protein” was tested, and the stoichiometry N [2] was 3 and 6.
